Data published in patent US20260116990A1 (KEY2BRAIN, published 2026).
Blank lines part the entries; values can stand above or below the binder they belong to.

Key:
[1] = biological target: T1, His-tagged ectodomain of human transferrin receptor 1 (hTfR1, R121-F760) (human, UniProt P02786 121-760); experiment: SPR Biacore 8K single-cycle; hTfR1 amine-coupled to CM5 chip, fusion as analyte
T1 construct: Made in CHO cells; Biotinylated for some uses; also called human TfR1

[2] = biological target: T2, His-tagged ectodomain of mouse transferrin receptor 1 (mTfR1, S122-F763) (mouse, UniProt Q62351 122-763); experiment: ELISA on coated TfR1 ectodomain; 125I-labelled or original sample, anti-VHH detection
T2 construct: also called mouse TfR1
Description: Briefly, high-binding half-area 96-well plates (Costar 3690, Merck) were coated with ectodomains of hTfR1 and mTfR1 at […] (in PBS pH 7.4). and left over night at 4° C. Plates were blocked for 1 h using 1% BSA 0.05% Tween®20 (Merck) in PBS.

[3] = biological target: T1, His-tagged ectodomain of human …; experiment: SPR; hTfR1 captured on amine-coupled hTf, binder as analyte
Description: (§1) The contact time was 150 s for each concentration at […] with a final dissociation step of 500 s. […] The data with respect to the association rate constant (ka), the dissociation rate constant (kd) and the equilibrium dissociation constant (KD) was evaluated using Biacore T200 software evaluation tool applying a Langmuir 1:1 model.

[4] = biological target: T1, His-tagged ectodomain of human …; experiment: SPR Biacore T200 single-cycle; hTfR1 captured on amine-coupled hTf, binder as analyte; 1:1 model
Description: as §1

T1 sequence (P02786 other isoform, or with tags, fused parts or gaps limits assumed): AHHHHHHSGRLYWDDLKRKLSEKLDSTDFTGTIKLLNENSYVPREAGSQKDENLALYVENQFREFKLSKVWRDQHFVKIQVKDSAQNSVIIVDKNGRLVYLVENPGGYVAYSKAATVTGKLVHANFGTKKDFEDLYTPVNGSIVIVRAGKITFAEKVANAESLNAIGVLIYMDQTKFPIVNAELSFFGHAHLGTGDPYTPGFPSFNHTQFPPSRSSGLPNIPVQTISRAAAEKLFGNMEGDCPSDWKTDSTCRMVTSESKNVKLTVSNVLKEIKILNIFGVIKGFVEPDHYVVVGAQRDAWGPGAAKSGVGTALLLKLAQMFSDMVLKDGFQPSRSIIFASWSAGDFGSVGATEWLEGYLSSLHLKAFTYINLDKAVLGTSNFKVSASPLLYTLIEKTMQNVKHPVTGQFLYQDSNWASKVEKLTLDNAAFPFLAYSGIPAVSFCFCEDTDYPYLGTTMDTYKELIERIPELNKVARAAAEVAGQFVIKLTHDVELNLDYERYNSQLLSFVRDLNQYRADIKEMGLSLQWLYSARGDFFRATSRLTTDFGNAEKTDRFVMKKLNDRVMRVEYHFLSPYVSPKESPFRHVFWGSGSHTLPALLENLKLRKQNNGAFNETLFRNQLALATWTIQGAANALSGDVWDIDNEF
T2 sequence (Q62351 other isoform, or with tags, fused parts or gaps limits assumed): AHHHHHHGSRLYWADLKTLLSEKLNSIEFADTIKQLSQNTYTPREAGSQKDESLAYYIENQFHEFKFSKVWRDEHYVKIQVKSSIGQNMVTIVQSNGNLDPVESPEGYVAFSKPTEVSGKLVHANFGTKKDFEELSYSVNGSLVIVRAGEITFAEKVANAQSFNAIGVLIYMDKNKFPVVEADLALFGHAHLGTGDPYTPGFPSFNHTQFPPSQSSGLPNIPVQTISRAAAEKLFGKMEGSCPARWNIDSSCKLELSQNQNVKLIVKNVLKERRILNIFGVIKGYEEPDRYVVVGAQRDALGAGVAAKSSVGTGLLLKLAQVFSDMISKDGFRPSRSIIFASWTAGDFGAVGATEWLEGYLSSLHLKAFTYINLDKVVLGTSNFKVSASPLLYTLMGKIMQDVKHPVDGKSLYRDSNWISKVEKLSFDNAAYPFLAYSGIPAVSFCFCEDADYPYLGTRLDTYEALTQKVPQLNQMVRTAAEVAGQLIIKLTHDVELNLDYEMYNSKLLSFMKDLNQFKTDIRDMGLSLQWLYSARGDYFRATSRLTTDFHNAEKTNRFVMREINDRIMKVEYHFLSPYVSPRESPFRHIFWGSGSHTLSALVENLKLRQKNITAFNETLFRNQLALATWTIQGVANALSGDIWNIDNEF

B3: KB_B01 monomeric VHH with C-terminal 6xHis tag and C-tag (VHH)
VHH: QVQLQESGGGLVQAGGSLRLSCAASGTPFSNNYMRWYRQAPGKQREWVAGFTSGGSTNYADSVKGRFTISRDNAEGTVYLQMDNLKPEDTAVYYCYFLDVWGQGTQVTVSS
notes: Single VHH unit from the E. coli periplasm
fold lower affinity (KD) than BA1 [3]: 166 fold | Kd [4]: 3310 pM | koff [4]: 0.00198 s⁻¹ | kon [4]: 597000 M⁻¹ s⁻¹

B4: scFv-KB_B01 (3D6 scFv at the N-terminus of KB_B01) (bispecific antibody)
chain: EVKLVESGGGLVKPGASLKLSCAASGFTFSNYGMSWVRQNSDKRLEWVASIRSGGGRTYYSDNVKGRFTISRENAKNTLYLQMSSLKSEDTALYYCVRYDHYSGSSDYWGQGTTVTVSGGGGSGGGGSGGGGSYVVMTQTPLTLSVTIGQPASISCKSSQSLLDSDGKTYLNWLLQRPGQSPKRLIYLVSKLDSGVPDRFTGSGSGTDFTLKISRIEAEDLGLYYCWQGTHFPRTFGGGTKLEIKGGGGSGGGGSGGGGSQVQLQESGGGLVQAGGSLRLSCAASGTPFSNNYMRWYRQAPGKQREWVAGFTSGGSTNYADSVKGRFTISRDNAEGTVYLQMDNLKPEDTAVYYCYFLDVWGQGTQVTVSSGSENLYFQSHHHHHH
notes: also called scFv-VHH
Kd [1]: 1800 pM | koff [1]: 0.000259 s⁻¹ | kon [1]: 144000 M⁻¹ s⁻¹ | binding result [2]: binds

Continued, values first:

Kd [1]: 698 pM | koff [1]: 0.000122 s⁻¹ | kon [1]: 175000 M⁻¹ s⁻¹ | binding result [2]: binds
B1: scFv-BV (3D6 scFv at the N-terminus of benchmark VHH BV) (bispecific antibody)
chain: EVKLVESGGGLVKPGASLKLSCAASGFTFSNYGMSWVRQNSDKRLEWVASIRSGGGRTYYSDNVKGRFTISRENAKNTLYLQMSSLKSEDTALYYCVRYDHYSGSSDYWGQGTTVTVSGGGGSGGGGSGGGGSYVVMTQTPLTLSVTIGQPASISCKSSQSLLDSDGKTYLNWLLQRPGQSPKRLIYLVSKLDSGVPDRFTGSGSGTDFTLKISRIEAEDLGLYYCWQGTHFPRTFGGGTKLEIKGGGGSGGGGSGGGGSEVQLVESGGGVVQPGGSLKLSCVASGTDFSINFIRWYRQAPGKQREFVAGFTATGNTNYADSMKGRFTISRDNTKNAVYLQIDSLKPEDTAVYYCYMLDKWGQGTQVTVSSGSENLYFQSHHHHHH
notes: also called scFc-BV

Kd [1]: 189 pM | koff [1]: 0.000117 s⁻¹ | kon [1]: 617000 M⁻¹ s⁻¹ | binding result [2]: binds
B2: BV-scFv (benchmark VHH BV at the N-terminus of 3D6 scFv) (bispecific antibody)
chain: EVQLVESGGGVVQPGGSLKLSCVASGTDFSINFIRWYRQAPGKQREFVAGFTATGNTNYADSMKGRFTISRDNTKNAVYLQIDSLKPEDTAVYYCYMLDKWGQGTQVTVSSGGGGSGGGGSGGGGSEVKLVESGGGLVKPGASLKLSCAASGFTFSNYGMSWVRQNSDKRLEWVASIRSGGGRTYYSDNVKGRFTISRENAKNTLYLQMSSLKSEDTALYYCVRYDHYSGSSDYWGQGTTVTVSGGGGSGGGGSGGGGSYVVMTQTPLTLSVTIGQPASISCKSSQSLLDSDGKTYLNWLLQRPGQSPKRLIYLVSKLDSGVPDRFTGSGSGTDFTLKISRIEAEDLGLYYCWQGTHFPRTFGGGTKLEIKGSENLYFQSHHHHHH

Kd [1]: 845 pM | koff [1]: 0.00045 s⁻¹ | kon [1]: 535000 M⁻¹ s⁻¹ | binding result [2]: binds
B5: KB_B01-scFv (KB_B01 at the N-terminus of 3D6 scFv) (bispecific antibody)
chain: QVQLQESGGGLVQAGGSLRLSCAASGTPFSNNYMRWYRQAPGKQREWVAGFTSGGSTNYADSVKGRFTISRDNAEGTVYLQMDNLKPEDTAVYYCYFLDVWGQGTQVTVSSGGGGSGGGGSGGGGSEVKLVESGGGLVKPGASLKLSCAASGFTFSNYGMSWVRQNSDKRLEWVASIRSGGGRTYYSDNVKGRFTISRENAKNTLYLQMSSLKSEDTALYYCVRYDHYSGSSDYWGQGTTVTVSGGGGSGGGGSGGGGSYVVMTQTPLTLSVTIGQPASISCKSSQSLLDSDGKTYLNWLLQRPGQSPKRLIYLVSKLDSGVPDRFTGSGSGTDFTLKISRIEAEDLGLYYCWQGTHFPRTFGGGTKLEIKGSENLYFQSHHHHHH
notes: also called VHH-scFv
